Assay results reported in patent US20240382604A1 (GUANGZHOU MEDICAL UNIVERSITY, published 2024).
No end group written: not given here.

Target: papain-like protease (PLpro), enzyme used in the in vitro enzyme assay (SARS-CoV-2, UniProt P0DTD1 1564-1878, limits assumed)
Experiment: cell-based or functional assay

Binder: SRLRGG-GRL0617 [peptide-drug conjugate RG-17 (polypeptide SRLRGG linked with GRL0617)]
- IC50, inhibition of PLpro activity in the in vitro enzyme assay (hydrolysis of substrate RLRGG-AMC, AMC fluorescence): 1400 nM
